From US20230071019A1 (RESEARCH FOUNDATION FOR THE STATE UNIVERSITY OF NEW YORK, published 2023)
Where a chain is given by its changes, count along the chain named.

Key:
avidin = target: T1, avidin (UniProt P02701 25-152); assay: phage ELISA on avidin coat without biotin-DM1
T1 construct: Negative-control coat; also called avidin alone

[1] = target: T2, ado-trastuzumab emtansine; assay: SPR, kinetic assessment, immobilized T-DM1
T2 construct: Antibody-drug conjugate immobilised on a CM5 SPR chip; also called TDM1; T-DM1

[2] = target: T2, ado-trastuzumab emtansine; assay: SPR, equilibrium binding, TDM1 on a CM5 chip, 3A2 injected at 1.25-400 nM
Procedure: (§1) Preliminary screening of DM1/4 binders were performed using a neutravidin SPR chip with DM1-Biotin on the left channel. Phagemid purified sdAbs were flowed over the SPR chip for 2 minutes at a flow rate of 25 ul/min. After binding, sdAb was dissociated for 20 minutes. Observed sensorgrams were fit to an individual dissociation rate constant for each construct. Equilibrium and kinetic binding of 3A2 was assessed using a CM5 SPR chip with TDM1 immobilized on the left channel. […] Rate constants for 3A2-TDM1 association and dissociation were obtained through fitting of the observed sensorgrams for the 1.25, 2.5, 5, 7.5 and 10 nM injections to a 1:1 Langmuir binding model.
(§2) Anti-DM1/DM4 sdAb DF3A2 clone. […] DNA encoding for 3A2 was synthesized and expressed in the E. coli strain SHuffle and purified using nickel chromatography. Purified 3A2 was used to assess TDM1 binding using SPR. […] To obtain a secondary measure of binding kinetics sdAb injected at concentrations between 1.25-10 nM were fit to a 1:1 Langmuir binding model to obtain association and dissociation rate constants.

[3] = target: T2, ado-trastuzumab emtansine; assay: SPR, kinetic fit (1:1 Langmuir), TDM1 on a CM5 chip, 3A2 injected at 1.25-10 nM
Procedure: as §1, §2

exatecan conjugated BSA = target: T3, exatecan conjugated BSA (bovine, UniProt P02769 25-607, exatecan conjugated to BSA; chemistry and sites not stated); assay: SPR, kinetic fit, BSA-conjugated exatecan on the chip
T3 construct: Hapten-carrier conjugate immobilised on the SPR chip; also called BSA conjugated Exatecan
T3 sequence (P02769 25-607 limits assumed): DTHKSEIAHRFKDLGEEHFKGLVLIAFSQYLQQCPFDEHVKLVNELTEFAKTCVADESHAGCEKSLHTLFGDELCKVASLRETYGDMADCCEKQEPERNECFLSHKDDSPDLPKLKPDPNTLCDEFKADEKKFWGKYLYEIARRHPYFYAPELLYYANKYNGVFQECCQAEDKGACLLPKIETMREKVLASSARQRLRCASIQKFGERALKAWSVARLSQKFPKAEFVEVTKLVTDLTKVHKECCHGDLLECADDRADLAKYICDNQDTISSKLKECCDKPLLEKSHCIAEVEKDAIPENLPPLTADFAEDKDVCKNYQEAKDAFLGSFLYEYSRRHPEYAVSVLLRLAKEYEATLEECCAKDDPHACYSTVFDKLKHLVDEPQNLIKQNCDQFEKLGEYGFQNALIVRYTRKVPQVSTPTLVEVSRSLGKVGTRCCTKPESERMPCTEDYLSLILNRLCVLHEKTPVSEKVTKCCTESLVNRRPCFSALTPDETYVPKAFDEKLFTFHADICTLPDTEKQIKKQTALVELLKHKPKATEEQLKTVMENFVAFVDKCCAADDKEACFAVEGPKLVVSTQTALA

[4] = target: T4, Cetuximab-calicheamicin conjugate; assay: competitive ELISA on cetuximab-calicheamicin coated plates, corrected for background
T4 construct: also called Cetuximab-calicheamcin conjugate; ADC (coated ELISA)
Procedure: (§3) Nunc Maxisorp 96-well plates were coated with 4 μg/ml Cetuximab or Cetuximab-calicheamicin, or 5 μg/ml Avidin. Plates were washed three times with PBST and three times with dH2O, and blocked with MPBS for 2 h at RT. For the Avidin coated plates, plates were washed three times with PBST and incubated with 1 μM Biotin-Calicheamcin. […] Plates were then washed three times with PBST, where bound sdAb was detected using an anti-His tag HRP-conjugated Ab diluted 1:1000 in MPBST. Following incubated and five washed with PBST, 100 μL of 1-Step Turbo TMB-ELISA solution was added to each well and incubated for 30 minutes. The reaction was quenched by adding 100 μL of Stop solution to each well and absorbance was measured at 450 nm. Alternatively, wells can also be incubated with 1:1000 diluted anti-His tag AP-conjugated Ab, instead of HRP conjugated Ab.

cetuximab = target: T5, cetuximab; assay: ELISA, purified CG4 on unconjugated cetuximab coat, anti-His HRP detection
T5 construct: not shown: the constant regions
Procedure: as §3

[5] = target: T4, Cetuximab-calicheamicin conjugate; assay: competitive ELISA on cetuximab-calicheamicin coated plates, 64 µM CG4 with or without 10 µM free calicheamicin
Procedure: as §3

T1 sequence (P02701 25-152 limits assumed): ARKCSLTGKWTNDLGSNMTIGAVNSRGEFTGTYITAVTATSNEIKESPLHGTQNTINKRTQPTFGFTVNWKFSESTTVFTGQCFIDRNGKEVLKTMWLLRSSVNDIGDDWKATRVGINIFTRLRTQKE

B1: Anti-DM1/DM4 sdAb DF4B12 clone (VHH)
VHH: EVQLVESGGGLVQPGGSLRLSCAASGSIFGISYMGWYRQAPGKQREPVALITSGGDTAYGDSVKGRFTISRDNAKNTVYLQMNSLTPEDTSTFYCAAGFYRSDSPNRYDYWGQGTQVTVSS
notes: Purified sdAb; tag not described
binding result (avidin): no binding
Kd [1]: 4.33 nM

B2: Anti-DM1/DM4 sdAb DF3A2 clone (VHH)
VHH: B1 VHH with E1Q, V5Q, S27G, T68A, T86K, E88D, T92A, F93Y
notes: also called sdAb 3A2
binding result (avidin): no binding
Kd [2]: 25 nM
Kd [3]: 12.3 nM

B3: Anti-DM1/DM4 sdAb DF3A4 clone (VHH)
VHH: B1 VHH with E1Q, V5Q, D56S, A58Y, G60A, F67V, N76K, T86R, F93Y
notes: as for B1
binding result (avidin): no binding
Kd [1]: 5.59 nM

B4: T3H3 (VHH)
VHH: EVQLVESGGGLVQPGGSLRLSCAASGRTFSHDHMGWFRQAPGKEREFVAAISWTSSTYYGDSVKGRFTISRSNAKNTVYLQMNSLKPEDTAIYYCSWGVGYWGQGTQVTVSS
notes: tested as phage media; also called DT3H3
binding result (avidin): no binding

B5: T3B5 (VHH)
VHH: QVQLVQSGGGLVQPGGSLRLSCTASGRTFSRYTMGWFRQAPGKEREFVAAISTGGLRQYFGDSVRGRCTISRDNAKSTVYLQMDSLKPEDTAVYYCAANWGTSYYWGQGTQVTVSS
notes: tested as phage media; also called DT3B5
binding result (avidin): no binding

B6: Anti-Exatecan sdAb TF7 clone (VHH)
VHH: QVQLQESGGGLAQPGGSLRVSCATSGFTFSSNYYISWVRQAPGRGLEWVSAINTGDGSTYYAHSVKGRFTISRDNAKNTLYLQMNSLKPEDTALYYCARSSLEGRIEKPYDYWGQGTQVTVSS
notes: Llama single domain antibody; also called anti-camptothecin sdAb (TF7)
Kd (exatecan conjugated BSA): 10 nM

B7: T3B4 (VHH)
VHH: QVQLQESGGGLVQAGDSLRLSCTASGRTFSRYTMGWFRQAPGKEREFVAAISTGGLRQYFGDSVRGRCTISRDNAKNTVYLQMDSLKPEDTAVYYCAATGNEYHWGRGTQVTVSS
notes: tested as phage media; also called DT3B4
binding result (avidin): no binding

B8: T3B3 (VHH)
VHH: EVQLVESGGGLVQAGGSLRLSCALSGGTLRSYTMGWIRQAPGKEREFVAGNRWSGGRTYYADSVKGRFTISGDNAENTVYLQMNSLKPEDTAVYYCTADVTEYGEDSSAYWGRGTQVTVSS
notes: tested as phage media; also called DT3B3
binding result (avidin): no binding

B9: Anti-Calicheamicin sdAb CG4 clone (VHH)
VHH: QVQLQESGGGLVQAGGSLRLSCAASGRTISGYAMGWFRQAPGKERDLVAAISRSGTSTYYADSVKGRFTISRDNAKNTVYLQMNSLKPEDTAVYYCNAPGGIWGQGTQVTVSS
fold decrease of ELISA signal on addition of 10 µM free calicheamicin, corrected for background [4]: ~3.3 fold
binding result (cetuximab): binds
fold decrease of ELISA signal on addition of 10 µM free calicheamicin [5]: 2.5 fold
